Reference: US7588893

Assays:
[1] = biological target: poly-GT oligonucleotide tagged anti-TSH mouse monoclonal IgG; assay: fluorescent microspheres on the poly-CA microspot carrying Poly-GT-Mouse IgG, confocal laser scanning, ex 488 / em 525
[2] = biological target: poly-CT oligonucleotide tagged rabbit IgG; assay: fluorescent microspheres on the poly-GA microspot carrying Poly-CT-Rabbit IgG, confocal laser scanning, ex 488 / em 525; control 13.3 ± 0.5
[3] = biological target: poly-CT oligonucleotide tagged rabbit IgG; assay: fluorescent microspheres on the poly-GA microspot carrying Poly-CT-Rabbit IgG, confocal laser scanning, ex 568 / em 585
[4] = biological target: poly-GT oligonucleotide tagged anti-TSH mouse monoclonal IgG; assay: fluorescent microspheres on the poly-CA microspot carrying Poly-GT-Mouse IgG, confocal laser scanning, ex 568 / em 585; control 22.0 ± 0.2

Yellow/Green Signal [1] | Yellow/Green Signal [2] | Red Signal [3] | Red Signal [4] | Substance
101 | 16.9 | – | – | goat anti-mouse IgG (whole molecule) antibody conjugated yellow-green FLUOSPHERES
– | – | 99.8 | 24 | goat anti-rabbit IgG (whole molecule) antibody conjugated red FLUOSPHERES
